Reference: paper PMC314469, “Protein Interaction Networks by Proteome Peptide Scanning” (PLoS Biology, 2004)

T1: amphyphisin SH3 (AMPH_HUMAN), P49418
T1 chain: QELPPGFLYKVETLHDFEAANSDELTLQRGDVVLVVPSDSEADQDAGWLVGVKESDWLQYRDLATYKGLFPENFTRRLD


Tests used:
[1] = molecular target: T1, amphyphisin SH3 (AMPH_HUMAN), P49418; experiment: SPOT array
[2] = molecular target: endophilin SH3 (SH3G2_HUMAN), Q99962; experiment: SPOT array

Row | normalised SPOT signal, Boehringer light units (BLU); mean over the file's lines of this peptide [1] | normalised SPOT signal, Boehringer light units (BLU); mean over the file's lines of this peptide [2] | Binder
1 | 43.3 | 668 | TGGGPGRPPDWTPH [Q9BZS0 2280-2294]
2 | 34.4 | 365 | TASPPARPPAQVGL [Q9NT59 32-46]
3 | 29.7 | 113 | TLLEPRRPRSESVT [Q9UPN7 147-160]
4 | 2770 | 1260 | TEGIPPKPPPRLVW [Q9UBY0 781-795]
5 | 866 | 170 | TKALLKRPLREIQM [Q9UBI4 175-188]
6 | 42.6 | 15.1 | TAKKIKRPKFTVPQ [Q9UDN0 30-43]
7 | 17.2 | 55.3 | SEEHPRRPDHGRRG [Q9NUN8 9-22]
8 | 3700 | 2770 | SWERPRRPNGDIVG [P16144 1660-1673]
9 | 40.3 | 20.5 | TDNKFRRPWTRVSA [Q96M73 46-59]
10 | 5130 | 93.8 | TAGPPKRPGRPPKN [P55201 901-914]
11 | 34.2 | 28.7 | TEEELRRPEMKNFF [Q9Y373 238-251]
12 | 656 | 77.7 | TEVDIKRPSRGQTS [Q96T37 401-414]
13 | 0 | 127 | TIPPFERPFKDHQV [O94847 104-117]
14 | 35.9 | 96.5 | SVTDIRRPRLYLLQ [Q9NYY3 591-604]
15 | 3250 | 877 | TLLALQRPQRLHHH [Q9NYK9 18-31]
16 | 118 | 339 | TELLPRRPPSSSSS [Q9BZL6 226-240]
17 | 34.4 | 21.9 | TELLPKRPQHLPGH [P54098 556-569]
18 | 16.8 | 16.8 | TEDTPRRPPEPKPI [Q9UKN7 2430-2443]
19 | 33.8 | 2020 | THLLIKRPPFFHYR [Q9HAM8 259-272]
20 | 780 | 2240 | SYRRLDRPTRIRFS [Q9H2X0 201-214]
21 | 76.6 | 128 | SEGSLTRPKKAIPA [Q13329 90-103]

Row | normalised SPOT signal, Boehringer light units (BLU); mean over the file's lines of this peptide [1] | normalised SPOT signal, Boehringer light units (BLU); mean over the file's lines of this peptide [2] | Binder
22 | 38.5 | 128 | SYTRIKRPQDQLRF [P55055 405-418]
23 | 30 | 0 | TEGRLRRPQQQQER [Q96PE2 193-206]
24 | 18800 | 1650 | TENAPSRPLRRRRK [Q9ULR8 121-134]
25 | 2720 | 15000 | TLKRPKRPPLKEFF [Q96NX2 23-37]
26 | 33.8 | 127 | SVVGIRRPFQIPPG [Q9NPJ5 421-434]
27 | 37.8 | 398 | TAVPPKRPYGTQRT [Q9H6A9 359-372]
28 | 282 | 916 | TILLPKRPPKTTED [Q9BT43 129-143]
29 | 123 | 1590 | TLLFPKRPFSWIRH [Q969I6 440-453]
30 | 90.4 | 80.7 | TKDSPGKPPMAPPS [BAC03441 170-184]
31 | 38.6 | 56.3 | THSIIKRPDNQHVI [Q02817 4993-5006]
32 | 708 | 13500 | TKTPPPRPPLPTQQ [Q9NSG0 388-402]
33 | 59.5 | 1750 | TIPKPPKPPDKPLM [O43539 57-71]
34 | 1030 | 73.5 | SWQILARPWRAFFK [Q9H6E1 737-750]
35 | 8170 | 583 | TFGIPLRPNRGRGG [Q9UFR3 88-101]
36 | 3950 | 24900 | TLKRPKRPPLREFF [Q9Y2E4 59-73]
37 | 468 | 1100 | TAPLPIRPPSGTKK [Q9UBS0 458-472]
38 | 930 | 125 | SEGTLERPQRSRGR [Q9NQX6 85-98]
39 | 12.2 | 179 | SWPLLERPWKAFLN [Q9H6E9 501-514]
40 | 184 | 488 | TLLGPGRPYRAIDF [P40126 196-209]
41 | 80.4 | 112 | TKIMFNRPKKKNAI [O75521 116-129]
42 | 53.7 | 22.1 | TKIPFKRPRGHNFS [Q9HAS2 64-77]
